Reference: patent US20100260668A1 (published 2010)
“And” between values parts separate entries of the source, which are not always exact repeats. Identical values can stand only once.

Assays:
[1] = target: T1, DLL4 (DLL4 ECD/His tag, R&D Systems 1506-D4-050) (UniProt Q9NR61 27-529); experiment: Direct bind ELISA on DLL4; reference antibody
T1 construct: extracellular domain; not shown: His tag

[2] = target: T1, DLL4 (DLL4 ECD/His tag, R&D Systems …); experiment: Direct bind ELISA on DLL4; DLL4 domain N-term., HC short, LC short
[3] = target: T2, DLL4 ECD/His tag (R&D 1506-D4-050) (UniProt Q9NR61 27-529); experiment: direct bind ELISA, DLL4 on plate; DLL4 VD N-term.; HC Short, LC Long
T2 construct: extracellular domain; Bought antigen coated on the ELISA plate; not shown: His tag

[4] = target: T2, DLL4 ECD/His tag (R&D 1506-D4-050); experiment: direct bind ELISA, DLL4 on plate; DLL4 VD N-term.; HC Long, LC Short

B1: AB015 (anti-DLL-4 (seq. 1) parent antibody) (antibody, human IgG1, V domains shown)
VH: EVQLVESGGGLVQPGGSLRLSCAASGFTFTDNWISWVRQAPGKGLEWVGYISPNSGFTYYADSVKGRFTISADTSKNTAYLQMNSLRAEDTAVYYCARDNFGGYFDYWGQGTLVTVSS
VL: DIQMTQSPSSLSASVGDRVTITCRASQDVSTAVAWYQQKPGKAPKLLIYSASFLYSGVPSRFSGSGSGTDFTLTISSLQPEDFATTYYCQQSYTGTVTFGQGTKVEIKR
notes: also called AB015VH; AB015VL
[1]
  EC50: 600 pM and 580 pM

B2: DVD465 (DLL4/VEGF DVD-Ig) (bispecific antibody, human IgG1)
VH: EVQLVESGGGLVQPGGSLRLSCAASGFTFTDNWISWVRQAPGKGLEWVGYISPNSGFTYYADSVKGRFTISADTSKNTAYLQMNSLRAEDTAVYYCARDNFGGYFDYWGQGTLVTVSSASTKGPEVQLVESGGGLVQPGGSLRLSCAASGFTISDYWIHWVRQAPGKGLEWVAGITPAGGYTYYADSVKGRFTISADTSKNTAYLQMNSLRAEDTAVYYCARFVFFLPYAMDYWGQGTLVTVSS
VL: DIQMTQSPSSLSASVGDRVTITCRASQDVSTAVAWYQQKPGKAPKLLIYSASFLYSGVPSRFSGSGSGTDFTLTISSLQPEDFATTYYCQQSYTGTVTFGQGTKVEIKRTVAAPDIQMTQSPSSLSASVGDRVTITCRASQDVSTAVAWYQQKPGKAPKLLIYSASFLYSGVPSRFSGSGSGTDFTLTISSLQPEDFATYYCQQSYTTPPTFGQGTKVEIKR
notes: HC linker short, LC linker short; also called DVD465H; DVD465L
[2]
  EC50: 570 pM

B3: DVD509 (bispecific antibody, human IgG1, kappa)
heavy: not shown
light: DIQMTQSSSYLSVSLGGRVTITCKASDHINNWLAWYQQKPGNAPRLLISGATSLETGVPSRFSGSGSGKDYTLSITSLQTEDVATYYCQQYWSIPLTFGAGTKLELKRTVAAPSVFIFPPDIQMTQSPSSLSASVGDRVTITCRASQVIRRSLAWYQQKPGKAPKLLIYAASNLASGVPSRFSGSGSGTDFTLTISSLQPEDFATYYCQQSNTSPLTFGQGTKVEIKRTVAAPSVFIFPPSDEQLKSGTASVVCLLNNFYPREAKVQWKVDNALQSGNSQESVTEQDSKDSTYSLSSTLTLSKADYEKHKVYACEVTHQGLSSPVTKSFNRGEC
notes: DVD-Ig; outer AB072 (DLL4), inner AB071 (VEGF); HC short, LC long linker; also called DVD509H; DVD509L
[3]
  EC50: 210 pM

B4: AB073 (anti-DLL4 (seq. 4) parent antibody) (antibody, human IgG1, V domains shown)
VH: EVQLQQSGPELEKPGASVKISCKASGYSFTGYNMNWVKQSNGKSLEWIGNIDPYFGGTNYNQKFKGKATLTVDKSSSTAYMQLKSLTSEDSAVYYCARNYDYDGGCFDYWGQGTTLTVSS
VL: QAVVTQESALTTSPGETVTLTCRSSTGAVTTSNYANWVQEKPDHLFTGLIGGTNNRAPGVPARFSGSLIGDKAALTITGAQTEDEAIYFCALWYSNHWVFGGGTKLTVLG
notes: also called AB073VH; AB073VL
[1]
  EC50: 220 pM and 210 pM

B5: DVD485 (bispecific antibody, human IgG1, kappa)
heavy: not shown
light: DIQMTQSPSSLSASVGDRVTITCRASQDVSTAVAWYQQKPGKAPKLLIYSASFLYSGVPSRFSGSGSGTDFTLTISSLQPEDFATTYYCQQSYTGTVTFGQGTKVEIKRTVAAPSVFIFPPDIQMTQSPSSLSASVGDRVTITCRASQVIRRSLAWYQQKPGKAPKLLIYAASNLASGVPSRFSGSGSGTDFTLTISSLQPEDFATYYCQQSNTSPLTFGQGTKVEIKRTVAAPSVFIFPPSDEQLKSGTASVVCLLNNFYPREAKVQWKVDNALQSGNSQESVTEQDSKDSTYSLSSTLTLSKADYEKHKVYACEVTHQGLSSPVTKSFNRGEC
notes: DVD-Ig; outer AB015 (DLL4), inner AB071 (VEGF); HC short, LC long linker; also called DVD485H; DVD485L
[3]
  EC50: 1410 pM

B6: DVD489 (DLL4/VEGF DVD-Ig) (bispecific antibody, human IgG1)
VH: EVQLQQSGPELVKPGASVKMSCKASGYTFTSYVINWVKQKPGQGLEWIGLINPYNDGTKYNEKFKVKATLTSDKSSSTAYMELSSLTSEDSAVYYCASYYYGSRYYFDYWGQGTTLTVSSASTKGPEVQLVESGGGLVQPGGSLRLSCAASGFTISDYWIHWVRQAPGKGLEWVAGITPAGGYTYYADSVKGRFTISADTSKNTAYLQMNSLRAEDTAVYYCARFVFFLPYAMDYWGQGTLVTVSS
VL: DIQMTQSSSYLSVSLGGRVTITCKASDHINNWLAWYQQKPGNAPRLLISGATSLETGVPSRFSGSGSGKDYTLSITSLQTEDVATYYCQQYWSIPLTFGAGTKLELKRTVAAPDIQMTQSPSSLSASVGDRVTITCRASQDVSTAVAWYQQKPGKAPKLLIYSASFLYSGVPSRFSGSGSGTDFTLTISSLQPEDFATYYCQQSYTTPPTFGQGTKVEIKR
notes: HC linker short, LC linker short; also called DVD489H; DVD489L
[2]
  EC50: 620 pM

B7: DVD503 (bispecific antibody, human IgG1, kappa)
heavy: not shown
light: DIQMTQSSSYLSVSLGGRVTITCKASDHINNWLAWYQQKPGNAPRLLISGATSLETGVPSRFSGSGSGKDYTLSITSLQTEDVATYYCQQYWSIPLTFGAGTKLELKRTVAAPDIQMTQSPSSLSASVGDRVTITCRASQVIRRSLAWYQQKPGKAPKLLIYAASNLASGVPSRFSGSGSGTDFTLTISSLQPEDFATYYCQQSNTSPLTFGQGTKVEIKRTVAAPSVFIFPPSDEQLKSGTASVVCLLNNFYPREAKVQWKVDNALQSGNSQESVTEQDSKDSTYSLSSTLTLSKADYEKHKVYACEVTHQGLSSPVTKSFNRGEC
notes: DVD-Ig; outer AB072 (DLL4), inner AB071 (VEGF); HC long, LC short linker; also called DVD503H; DVD503L
[4]
  EC50: 330 pM

B8: DVD513 (DLL4/VEGF DVD-Ig) (bispecific antibody, human IgG1)
VH: EVQLQQSGPELEKPGASVKISCKASGYSFTGYNMNWVKQSNGKSLEWIGNIDPYFGGTNYNQKFKGKATLTVDKSSSTAYMQLKSLTSEDSAVYYCARNYDYDGGCFDYWGQGTTLTVSSASTKGPEVQLVESGGGLVQPGGSLRLSCAASGFTISDYWIHWVRQAPGKGLEWVAGITPAGGYTYYADSVKGRFTISADTSKNTAYLQMNSLRAEDTAVYYCARFVFFLPYAMDYWGQGTLVTVSS
VL: QAVVTQESALTTSPGETVTLTCRSSTGAVTTSNYANWVQEKPDHLFTGLIGGTNNRAPGVPARFSGSLIGDKAALTITGAQTEDEAIYFCALWYSNHWVFGGGTKLTVLGQPKAAPDIQMTQSPSSLSASVGDRVTITCRASQDVSTAVAWYQQKPGKAPKLLIYSASFLYSGVPSRFSGSGSGTDFTLTISSLQPEDFATYYCQQSYTTPPTFGQGTKVEIKR
notes: HC linker short, LC linker short; also called DVD513H; DVD513L
[2]
  EC50: 660 pM

B9: DVD533 (bispecific antibody, human IgG1, kappa, lambda, L234A L235A)
heavy: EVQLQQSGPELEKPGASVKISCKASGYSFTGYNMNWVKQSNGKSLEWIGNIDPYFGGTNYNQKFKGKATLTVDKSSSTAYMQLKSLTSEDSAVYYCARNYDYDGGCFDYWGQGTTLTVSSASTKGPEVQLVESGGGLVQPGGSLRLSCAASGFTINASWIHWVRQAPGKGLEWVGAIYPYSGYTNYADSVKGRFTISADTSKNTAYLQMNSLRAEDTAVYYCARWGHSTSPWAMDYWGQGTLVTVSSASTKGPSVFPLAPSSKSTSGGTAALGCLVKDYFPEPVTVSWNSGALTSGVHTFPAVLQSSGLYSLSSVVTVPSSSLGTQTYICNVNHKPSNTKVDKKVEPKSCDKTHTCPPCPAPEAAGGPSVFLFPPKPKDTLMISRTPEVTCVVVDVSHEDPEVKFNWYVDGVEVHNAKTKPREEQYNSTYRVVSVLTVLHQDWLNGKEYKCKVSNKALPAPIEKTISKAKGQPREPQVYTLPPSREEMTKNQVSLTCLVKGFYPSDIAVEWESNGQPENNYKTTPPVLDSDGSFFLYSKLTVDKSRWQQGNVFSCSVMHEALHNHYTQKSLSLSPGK
light: QAVVTQESALTTSPGETVTLTCRSSTGAVTTSNYANWVQEKPDHLFTGLIGGTNNRAPGVPARFSGSLIGDKAALTITGAQTEDEAIYFCALWYSNHWVFGGGTKLTVLGQPKAAPSVTLFPPDIQMTQSPSSLSASVGDRVTITCRASQVIRRSLAWYQQKPGKAPKLLIYAASNLASGVPSRFSGSGSGTDFTLTISSLQPEDFATYYCQQSNTSPLTFGQGTKVEIKRTVAAPSVFIFPPSDEQLKSGTASVVCLLNNFYPREAKVQWKVDNALQSGNSQESVTEQDSKDSTYSLSSTLTLSKADYEKHKVYACEVTHQGLSSPVTKSFNRGEC
notes: DVD-Ig; outer AB073 (DLL4), inner AB071 (VEGF); HC short, LC long linker; also called DVD533H; DVD533L
[3]
  EC50: 250 pM

B10: DVD527 (bispecific antibody, human IgG1, kappa)
heavy: not shown
light: QAVVTQESALTTSPGETVTLTCRSSTGAVTTSNYANWVQEKPDHLFTGLIGGTNNRAPGVPARFSGSLIGDKAALTITGAQTEDEAIYFCALWYSNHWVFGGGTKLTVLGQPKAAPDIQMTQSPSSLSASVGDRVTITCRASQVIRRSLAWYQQKPGKAPKLLIYAASNLASGVPSRFSGSGSGTDFTLTISSLQPEDFATYYCQQSNTSPLTFGQGTKVEIKRTVAAPSVFIFPPSDEQLKSGTASVVCLLNNFYPREAKVQWKVDNALQSGNSQESVTEQDSKDSTYSLSSTLTLSKADYEKHKVYACEVTHQGLSSPVTKSFNRGEC
notes: DVD-Ig; outer AB073 (DLL4), inner AB071 (VEGF); HC long, LC short linker; also called DVD527H; DVD527L
[4]
  EC50: 200 pM

B11: DVD463 (bispecific antibody, human IgG1, kappa)
heavy: not shown
light: DIVMTQSPDSLAVSLGERATISCRASESVDNYGISFMKWFQQKPGQPPKLLIYAASNQGSGVPDRFSGSGSGTDFTLTISSLQAEDVAVYYCQQSKEVPWTFGGGTKVEIKRTVAAPSVFIFPPDIQMTQSPSSLSASVGDRVTITCRASQVIRRSLAWYQQKPGKAPKLLIYAASNLASGVPSRFSGSGSGTDFTLTISSLQPEDFATYYCQQSNTSPLTFGQGTKVEIKRTVAAPSVFIFPPSDEQLKSGTASVVCLLNNFYPREAKVQWKVDNALQSGNSQESVTEQDSKDSTYSLSSTLTLSKADYEKHKVYACEVTHQGLSSPVTKSFNRGEC
notes: DVD-Ig; outer AB069 (DLL4), inner AB071 (VEGF); HC short, LC long linker; also called DVD463H; DVD463L
[3]
  EC50: 500 pM

B12: DVD443 (DLL4/VEGF DVD-Ig) (bispecific antibody, human IgG1)
VH: QVQLVQSGAEVKKPGASVKISCKASGYSFTAYYIHWVKQAPGQGLEWIGYISSYNGATNYNQKFKGRVTFTTDTSTSTAYMELRSLRSDDTAVYYCARDYDYDVGMDYWGQGTLVTVSSASTKGPEVQLVESGGGLVQPGGSLRLSCAASGFTISDYWIHWVRQAPGKGLEWVAGITPAGGYTYYADSVKGRFTISADTSKNTAYLQMNSLRAEDTAVYYCARFVFFLPYAMDYWGQGTLVTVSS
VL: DIVMTQSPDSLAVSLGERATISCRASESVDNYGISFMKWFQQKPGQPPKLLIYAASNQGSGVPDRFSGSGSGTDFTLTISSLQAEDVAVYYCQQSKEVPWTFGGGTKVEIKRTVAAPDIQMTQSPSSLSASVGDRVTITCRASQDVSTAVAWYQQKPGKAPKLLIYSASFLYSGVPSRFSGSGSGTDFTLTISSLQPEDFATYYCQQSYTTPPTFGQGTKVEIKR
notes: HC linker short, LC linker short; also called DVD443H; DVD443L
[2]
  EC50: 200 pM

B13: AB069 (anti-DLL4 (seq. 2) parent antibody) (antibody, human IgG1, V domains shown)
VH: QVQLVQSGAEVKKPGASVKISCKASGYSFTAYYIHWVKQAPGQGLEWIGYISSYNGATNYNQKFKGRVTFTTDTSTSTAYMELRSLRSDDTAVYYCARDYDYDVGMDYWGQGTLVTVSS
VL: DIVMTQSPDSLAVSLGERATISCRASESVDNYGISFMKWFQQKPGQPPKLLIYAASNQGSGVPDRFSGSGSGTDFTLTISSLQAEDVAVYYCQQSKEVPWTFGGGTKVEIKR
notes: also called AB069VH; AB069VL
[1]
  EC50: 230 pM and 240 pM

B14: DVD457 (bispecific antibody, human IgG1, kappa, L234A L235A)
heavy: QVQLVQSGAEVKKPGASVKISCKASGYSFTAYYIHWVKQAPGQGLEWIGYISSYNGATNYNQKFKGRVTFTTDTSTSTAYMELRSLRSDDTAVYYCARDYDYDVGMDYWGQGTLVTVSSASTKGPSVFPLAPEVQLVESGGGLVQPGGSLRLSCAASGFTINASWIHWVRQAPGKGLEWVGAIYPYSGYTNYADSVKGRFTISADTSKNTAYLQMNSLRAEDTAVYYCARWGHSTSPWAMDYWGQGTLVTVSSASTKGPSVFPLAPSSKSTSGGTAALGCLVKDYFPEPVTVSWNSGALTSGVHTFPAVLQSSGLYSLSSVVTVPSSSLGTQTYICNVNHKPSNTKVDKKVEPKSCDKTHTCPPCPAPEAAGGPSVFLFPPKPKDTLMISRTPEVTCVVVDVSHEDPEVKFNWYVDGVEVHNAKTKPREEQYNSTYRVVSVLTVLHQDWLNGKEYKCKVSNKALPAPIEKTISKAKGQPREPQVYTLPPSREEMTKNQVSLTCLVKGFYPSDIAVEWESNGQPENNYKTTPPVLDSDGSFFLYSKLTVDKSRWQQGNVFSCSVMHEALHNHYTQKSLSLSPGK
light: DIVMTQSPDSLAVSLGERATISCRASESVDNYGISFMKWFQQKPGQPPKLLIYAASNQGSGVPDRFSGSGSGTDFTLTISSLQAEDVAVYYCQQSKEVPWTFGGGTKVEIKRTVAAPDIQMTQSPSSLSASVGDRVTITCRASQVIRRSLAWYQQKPGKAPKLLIYAASNLASGVPSRFSGSGSGTDFTLTISSLQPEDFATYYCQQSNTSPLTFGQGTKVEIKRTVAAPSVFIFPPSDEQLKSGTASVVCLLNNFYPREAKVQWKVDNALQSGNSQESVTEQDSKDSTYSLSSTLTLSKADYEKHKVYACEVTHQGLSSPVTKSFNRGEC
notes: DVD-Ig; outer AB069 (DLL4), inner AB071 (VEGF); HC long, LC short linker; also called DVD457H; DVD457L
[4]
  EC50: 130 pM

B15: AB072 (anti-DLL4 (seq. 3) parent antibody) (antibody, human IgG1, V domains shown)
VH: EVQLQQSGPELVKPGASVKMSCKASGYTFTSYVINWVKQKPGQGLEWIGLINPYNDGTKYNEKFKVKATLTSDKSSSTAYMELSSLTSEDSAVYYCASYYYGSRYYFDYWGQGTTLTVSS
VL: DIQMTQSSSYLSVSLGGRVTITCKASDHINNWLAWYQQKPGNAPRLLISGATSLETGVPSRFSGSGSGKDYTLSITSLQTEDVATYYCQQYWSIPLTFGAGTKLELKR
notes: also called AB072VH; AB072VL
[1]
  EC50: 63400 pM and 63200 pM
